# In PMC9880977 (Computational and Structural Biotechnology Journal, 2023):
# T1: HaLF (Heterobasidion irregulare, UniProt W4KBR7, A247E/F364D)
# T1 sequence (W4KBR7 21-648 A247E/F364D): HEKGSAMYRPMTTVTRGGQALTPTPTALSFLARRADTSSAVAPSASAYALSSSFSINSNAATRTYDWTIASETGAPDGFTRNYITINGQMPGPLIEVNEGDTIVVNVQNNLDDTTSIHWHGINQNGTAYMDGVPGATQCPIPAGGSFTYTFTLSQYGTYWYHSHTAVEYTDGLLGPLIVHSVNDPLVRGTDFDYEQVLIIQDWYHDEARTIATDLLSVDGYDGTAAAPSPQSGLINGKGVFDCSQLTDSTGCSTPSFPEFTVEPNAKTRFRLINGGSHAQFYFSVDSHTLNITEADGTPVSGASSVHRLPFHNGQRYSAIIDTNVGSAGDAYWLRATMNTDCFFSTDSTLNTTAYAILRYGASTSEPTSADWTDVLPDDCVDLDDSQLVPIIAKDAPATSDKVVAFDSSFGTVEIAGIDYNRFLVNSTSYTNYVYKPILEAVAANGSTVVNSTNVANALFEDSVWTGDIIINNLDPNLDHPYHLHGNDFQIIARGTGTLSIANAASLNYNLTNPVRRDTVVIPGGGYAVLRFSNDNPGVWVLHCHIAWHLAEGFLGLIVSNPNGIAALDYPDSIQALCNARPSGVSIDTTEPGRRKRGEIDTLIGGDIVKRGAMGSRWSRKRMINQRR
# T2: HaLF (Heterobasidion irregulare, UniProt W4KBR7)
# T2 sequence (W4KBR7 21-648): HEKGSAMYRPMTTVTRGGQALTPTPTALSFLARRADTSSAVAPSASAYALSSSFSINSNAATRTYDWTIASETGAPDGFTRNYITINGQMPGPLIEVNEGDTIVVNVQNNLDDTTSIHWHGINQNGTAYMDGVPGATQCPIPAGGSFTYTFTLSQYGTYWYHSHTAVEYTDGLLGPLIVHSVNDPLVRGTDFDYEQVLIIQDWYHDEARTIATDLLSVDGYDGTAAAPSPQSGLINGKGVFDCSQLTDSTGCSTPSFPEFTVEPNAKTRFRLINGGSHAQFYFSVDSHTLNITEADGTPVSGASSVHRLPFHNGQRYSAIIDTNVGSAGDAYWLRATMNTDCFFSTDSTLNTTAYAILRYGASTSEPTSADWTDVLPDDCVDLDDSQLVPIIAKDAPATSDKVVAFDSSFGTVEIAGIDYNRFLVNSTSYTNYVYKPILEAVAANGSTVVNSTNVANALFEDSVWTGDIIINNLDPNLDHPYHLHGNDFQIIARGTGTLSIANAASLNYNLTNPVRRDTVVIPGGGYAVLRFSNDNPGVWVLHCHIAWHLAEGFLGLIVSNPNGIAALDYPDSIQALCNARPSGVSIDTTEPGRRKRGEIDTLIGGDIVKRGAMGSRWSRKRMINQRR
# Legend:
# HaLF [1] = target: T1, HaLF; experiment: spectrophotometric oxidation at […] nm, hyperbola or Hill fit; format: biochemical; conditions: read-out: HaLFA227E, F344D / KM; 100 mM citrate-phosphate pH 4; air O2
# HaLF [2] = target: T2, HaLF; experiment: as above; format: biochemical; conditions: read-out: HaLF / KM; 100 mM citrate-phosphate pH 4; air O2
# COc1cccc(OC)c1O = experiment: purified protein; format: biochemical, Heterobasidion irregulare; conditions: 100 mM citrate-phosphate pH 5, air O2
# COc1ccccc1O = experiment: purified protein; format: biochemical, Heterobasidion irregulare; conditions: 100 mM citrate-phosphate pH 5, air O2
# [3] = test system: CCn1c(=NN=c2sc3cc(S(=O)(=O)O)ccc3n2CC)sc2cc(S(=O)(=O)O)ccc21; experiment: purified protein; conditions: 100 mM citrate-phosphate pH 4, air O2
# purified protein [4] = substrate: COc1ccccc1O; experiment: purified protein; format: biochemical, Heterobasidion irregulare; conditions: 100 mM citrate-phosphate pH 5, air O2; remark: listed apart in the source
# purified protein [5] = substrate: COc1cccc(OC)c1O; experiment: purified protein; format: biochemical, Heterobasidion irregulare; conditions: 100 mM citrate-phosphate pH 5, air O2; remark: listed apart in the source
# purified protein [6] = substrate: CCn1c(=NN=c2sc3cc(S(=O)(=O)O)ccc3n2CC)sc2cc(S(=O)(=O)O)ccc21; experiment: purified protein; conditions: 100 mM citrate-phosphate pH 4, air O2; remark: listed apart in the source
# purified protein [7] = substrate: Nc1ccccc1N; experiment: purified protein; conditions: 100 mM citrate-phosphate pH 4, air O2
molecule,measurement,setting,value
"CN(C)c1ccc(N)cc1 [DMPD, N,N-Dimethyl-1,4-phenylenediamine]",Km,HaLF [1],9 ± 0.8 mM
same,Km,HaLF [2],8 ± 0.4 mM
HaLF (Heterobasidion irregulare TC 32-1; A247E/F364D),Km,COc1cccc(OC)c1O,3.8 ± 0.3 mM
same,kcat,COc1cccc(OC)c1O,0.87 ± 0.03 s⁻¹
same,Km,COc1ccccc1O,31 ± 4 mM
same,kcat,COc1ccccc1O,0.3 ± 0.02 s⁻¹
same,Km,[3],11 ± 1.5 mM
same,kcat,[3],16 ± 1 s⁻¹
HaLF (Heterobasidion irregulare TC 32-1) (protein) HEKGSAMYRPMTTVTRGGQALTPTPTALSFLARRADTSSAVAPSASAYALSSSFSINSNAATRTYDWTIASETGAPDGFTRNYITINGQMPGPLIEVNEGDTIVVNVQNNLDDTTSIHWHGINQNGTAYMDGVPGATQCPIPAGGSFTYTFTLSQYGTYWYHSHTAVEYTDGLLGPLIVHSVNDPLVRGTDFDYEQVLIIQDWYHDEARTIATDLLSVDGYDGTAAAPSPQSGLINGKGVFDCSQLTDSTGCSTPSFPEFTVEPNAKTRFRLINGGSHAQFYFSVDSHTLNITEADGTPVSGASSVHRLPFHNGQRYSAIIDTNVGSAGDAYWLRATMNTDCFFSTDSTLNTTAYAILRYGASTSEPTSADWTDVLPDDCVDLDDSQLVPIIAKDAPATSDKVVAFDSSFGTVEIAGIDYNRFLVNSTSYTNYVYKPILEAVAANGSTVVNSTNVANALFEDSVWTGDIIINNLDPNLDHPYHLHGNDFQIIARGTGTLSIANAASLNYNLTNPVRRDTVVIPGGGYAVLRFSNDNPGVWVLHCHIAWHLAEGFLGLIVSNPNGIAALDYPDSIQALCNARPSGVSIDTTEPGRRKRGEIDTLIGGDIVKRGAMGSRWSRKRMINQRR,Km,purified protein [4],20 ± 5 mM
same,kcat,purified protein [4],3.7 ± 0.4 s⁻¹
same,Km,purified protein [5],0.5 ± 0.05 mM
same,kcat,purified protein [5],122 ± 4 s⁻¹
same,Km,purified protein [6],4 ± 0.6 mM
same,kcat,purified protein [6],428 ± 14 s⁻¹
same,Km,purified protein [7],1.6 ± 0.3 mM
same,kcat,purified protein [7],26 ± 2 s⁻¹
